Tests used:
[1] = target: rabbit serum albumin (RSA) (Oryctolagus cuniculus, UniProt P49065); assay: Mass spectrometric analysis of conjugation to RSA (HPLC/ESIMS, MALDI-TOFMS); assay type: binding; conditions: LC/MS; 15 μM RSA, 200 μM argatroban-C6 NHS ester, 1 hour (Example 8)
Method: All samples were analyzed using a high performance liquid chromatograph (HPLC) coupled in-line to an electrospray ionization (ESI) mass spectrometer (MS) which is termed HPLC/ESIMS. Some samples were also analyzed using a matrix-assisted laser desorption ionization (MALDI) time-of-flight (TOF) mass spectrometer which is termed (MALDI-TOFMS).
Samples for HPLC/ESIMS were either prepared as duplicate reaction samples or were part of the same reaction samples which were used in the ELISA assays described below. These samples were injected directly only the HPLC/ESIMS without any manipulation other than dilution with water, where the PBS, DMSO, and unreacted derivative molecules are separated from the protein-argatroban derivative molecule conjugate. Samples for MALDI-MS were first HPLC-purified and mixed 1:1 directly on the stainless steel analysis plate with a matrix of 10 mg/ml sinnapinic acid in 50% acetonitrile/50% water. The mixture was then dried with a gentle flow of air to allow for crystallization and inserted into the instrument for laser ionization.
The HPLC is a Hewlett Packard 1090 Series II liquid chromatogram with a diode array detector. The column used for separation is a Brownlee aquapore OD-300 reversed phase C18 column, 1 mm×10 cm, 300 Å pore size, 7 μm particle diameter. The mass spectrometer to which the HPLC is connected using fused Silica capillary tubing is a Sciex API-300 triple quadrupole mass spectrometer with an ionspray source to allow for atmospheric pressure ionization of a liquid flowing continuously into the instrument. The MALDI-TOFMS is a Perceptive Biosystems Voyager Elite DE instrument run in the linear mode.
The conjugate was prepared according to the following protocol. […] Sham samples consist of the RSA incubated for the same length of time at RT in 2% DMSO in PBS. Each of the samples was then concentrated to a final volume of 1.5 mL using Amicon Centricon 30 filtration/concentration devices. The concentrated samples were then desalted on Pierce's 5 ML Kwiksep excellulose plastic desalting columns. The excluded volumes containing RSA or argatroban-C6-RSA were then subjected to BCA microprotein estimation and lyophilization. In addition, these samples were analyzed by LC/MS, sandwich ELISA assays (described above) to measure thrombin binding and immunoblotting.

thrombin = assay: Sandwich ELISA for thrombin binding of conjugated proteins (anti-thrombin detection)
Method: (§1) The plates were incubated at room temperature for 30 minutes and washed as above.
as §1
Next, 100 μl/well of ABC-HRP (Vector, catalog no. PK4000) was added, each component diluted 1:500 in PBS, pH 7.4, with 0.1% TWEEN 20 and incubated 30 minutes at room temperature prior to use.

[2] = target: thrombin from human plasma (Homo sapiens, UniProt P00734); assay: Km-based fluorogenic assay for inhibition of thrombin (Example 7); assay type: biochemical; parameters: from tissue; host or cells: human plasma; conditions: FIG. 9, ambient temperature, pH 7.2
Method: Thrombin from human plasma was obtained from Enzyme System Products, Dublin, Calif., in glycerol:water 1:1, 11.4 mg/ml, 3800 U/mg, MW 36,700, and stored undiluted at -20° C. It was freshly diluted the day of use.
To dilute for the assay, 0.67 μl (25 Units) of thrombin was pipetted into 5 ml of 0.1 mg/ml BSA (from Pierce, Catalog No. 23209, BSA fraction V, a 2 mg/ml stock in saline with sodium azide), in cold PBS (GIBCO, Catalog No. 14190-136, without calcium chloride and magnesium chloride, pH 7.2) and briefly vortexed, yielding a stock of 5 mU thrombin/μl.
The substrate was N-tBOC-β-Benzyl-Asp-Pro-Arg-7-Amido4-Methylcoumarin HCl and was obtained from Sigma, Catalog No. B4028, Lot 122H0070, F.W. 770.3. Five mg was dissolved in […] DMSO for a 4 mM stock. The stock was stored in 200 μl aliquots at -20° C. in the dark.
An alternative substrate was N-tBOC-Val-Pro-Arg-7-Amido4-Methylcoumarin HCl and was obtained from Sigma, Catalog No. B-9385, Lot 53H0805, F.W. of free base 627.7. Five mg was dissolved in 1.863 ml DMSO for a 4 mM stock. The stock was stored in 200 μl aliquots at -20° C. in the dark.
The fluorescent standard was 7-Amido4-Methylcoumarin and was obtained from Aldrich, Catalog No. 25,737-0, MW 175.19. […]
Initial readings were taken to ensure exclusion of rogue wells with abnormally high backgrounds (λ excitation at 360 nm, bandwidth […], λ emission, 460 nm, bandwidth 40 nm). Then, 25 μl of a 10×stock of the putative inhibitor were added per well, mixed for 5 seconds and read kinetically for 10 minutes at ambient temperature to assess background interference and/or any increase in hydrolysis of substrate due to inhibitor.
The thrombin assay was then initiated by adding 25 μl of thrombin/well with a multichannel pipettor and mixed for 5 seconds. The appearence of the fluorescent product (free 7-amido-4-methylcoumarin released from the peptide by thrombin) was followed simultaneously in 48 wells (one reading per minute for 30 minutes, λ excitation at 360 nm, bandwidth 40 nm, λ emission, 460 nm, bandwidth 40 nm). […]

Sequence of rabbit serum albumin (RSA) (P49065 25-608): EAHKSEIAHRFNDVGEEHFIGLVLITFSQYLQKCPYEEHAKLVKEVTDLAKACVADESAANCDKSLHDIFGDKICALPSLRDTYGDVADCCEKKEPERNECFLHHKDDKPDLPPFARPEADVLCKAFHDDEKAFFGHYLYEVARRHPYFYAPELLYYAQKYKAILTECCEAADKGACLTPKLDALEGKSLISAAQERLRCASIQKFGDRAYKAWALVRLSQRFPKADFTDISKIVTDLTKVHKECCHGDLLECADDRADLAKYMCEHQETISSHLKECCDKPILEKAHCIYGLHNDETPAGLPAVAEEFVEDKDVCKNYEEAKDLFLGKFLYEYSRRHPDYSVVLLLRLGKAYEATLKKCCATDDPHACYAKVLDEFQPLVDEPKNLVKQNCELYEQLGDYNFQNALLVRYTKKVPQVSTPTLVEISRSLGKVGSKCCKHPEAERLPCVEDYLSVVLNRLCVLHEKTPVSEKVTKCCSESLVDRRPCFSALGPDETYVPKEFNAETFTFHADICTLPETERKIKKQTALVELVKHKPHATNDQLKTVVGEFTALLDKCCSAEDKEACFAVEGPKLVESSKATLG

How did the “average of tethered argatroban molecules conjugated to each RSA molecule” value [1] turn out when “RSA-argatroban-C6 conjugate: rabbit serum albumin covalently bound by argatroban-C6 NHS ester molecules” was run?
The value was 10 tethered argatroban molecules.

What about the “absolute ELISA signal” value (thrombin; RSA conjugate versus HSA conjugate) of the same substance?
Its value is “the absolute signal is lower than that obtained with HSA”.

What about the “concentration at which a significant signal above background was detected” value (thrombin; RSA conjugate, FIG. 3) of the same substance?
Its value is “approximately 30 ng/ml”.

What about the “IC50 (estimated)” value [2] of the same substance?
The value was about 25 nM.

— patent US6087375A, “Methods of treating or preventing thromboses” (priority 1999, dated 2000)
